Patent publication US20160185837A1 (AstraZeneca / MedImmune, published 2016)
Numbering of substitutions follows the chain as printed.

T1: human GIP receptor (human, UniProt P48546 22-466)
T1 sequence (looked up): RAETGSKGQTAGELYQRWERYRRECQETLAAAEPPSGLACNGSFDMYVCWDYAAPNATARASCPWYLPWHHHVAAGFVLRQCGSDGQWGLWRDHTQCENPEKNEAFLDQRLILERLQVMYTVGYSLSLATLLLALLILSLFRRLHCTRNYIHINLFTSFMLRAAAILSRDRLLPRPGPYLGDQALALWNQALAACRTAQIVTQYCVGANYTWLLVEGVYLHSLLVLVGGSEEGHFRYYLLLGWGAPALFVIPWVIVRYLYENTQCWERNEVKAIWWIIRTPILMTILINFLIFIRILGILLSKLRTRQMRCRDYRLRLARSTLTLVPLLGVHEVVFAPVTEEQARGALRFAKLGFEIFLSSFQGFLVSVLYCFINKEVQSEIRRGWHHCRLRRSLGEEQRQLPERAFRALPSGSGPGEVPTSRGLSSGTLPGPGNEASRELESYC

T2: mouse GLP-1 receptor (mouse, UniProt O35659 22-463)
T2 sequence (looked up): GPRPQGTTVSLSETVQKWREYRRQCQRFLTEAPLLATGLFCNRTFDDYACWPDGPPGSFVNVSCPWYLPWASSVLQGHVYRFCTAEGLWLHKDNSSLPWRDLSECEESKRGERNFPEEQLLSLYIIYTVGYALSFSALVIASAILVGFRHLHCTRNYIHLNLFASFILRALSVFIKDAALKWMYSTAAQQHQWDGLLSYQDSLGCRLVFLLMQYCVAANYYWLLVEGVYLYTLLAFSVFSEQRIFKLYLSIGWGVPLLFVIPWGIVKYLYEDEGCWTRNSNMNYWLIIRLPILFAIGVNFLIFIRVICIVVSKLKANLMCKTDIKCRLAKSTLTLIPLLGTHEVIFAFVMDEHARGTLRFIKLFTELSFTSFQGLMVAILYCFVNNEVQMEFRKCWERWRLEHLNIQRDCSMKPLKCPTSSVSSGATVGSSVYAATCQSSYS

T3: mouse GIP receptor (mouse, UniProt Q0P543 19-460)
T3 sequence (looked up): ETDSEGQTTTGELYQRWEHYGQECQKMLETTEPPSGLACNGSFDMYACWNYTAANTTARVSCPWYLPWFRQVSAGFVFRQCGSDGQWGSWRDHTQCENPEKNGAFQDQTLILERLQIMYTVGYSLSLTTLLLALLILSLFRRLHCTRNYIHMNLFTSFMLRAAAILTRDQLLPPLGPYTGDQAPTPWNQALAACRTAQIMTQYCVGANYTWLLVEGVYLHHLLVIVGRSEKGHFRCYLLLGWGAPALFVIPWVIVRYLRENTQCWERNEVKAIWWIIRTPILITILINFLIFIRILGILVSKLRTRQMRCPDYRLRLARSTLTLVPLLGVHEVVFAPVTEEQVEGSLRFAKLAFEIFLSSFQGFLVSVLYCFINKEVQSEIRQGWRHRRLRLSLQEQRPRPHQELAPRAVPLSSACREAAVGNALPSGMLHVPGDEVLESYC

T4: rat GLP-1 receptor (rat, UniProt P32301 22-463)
T4 sequence (looked up): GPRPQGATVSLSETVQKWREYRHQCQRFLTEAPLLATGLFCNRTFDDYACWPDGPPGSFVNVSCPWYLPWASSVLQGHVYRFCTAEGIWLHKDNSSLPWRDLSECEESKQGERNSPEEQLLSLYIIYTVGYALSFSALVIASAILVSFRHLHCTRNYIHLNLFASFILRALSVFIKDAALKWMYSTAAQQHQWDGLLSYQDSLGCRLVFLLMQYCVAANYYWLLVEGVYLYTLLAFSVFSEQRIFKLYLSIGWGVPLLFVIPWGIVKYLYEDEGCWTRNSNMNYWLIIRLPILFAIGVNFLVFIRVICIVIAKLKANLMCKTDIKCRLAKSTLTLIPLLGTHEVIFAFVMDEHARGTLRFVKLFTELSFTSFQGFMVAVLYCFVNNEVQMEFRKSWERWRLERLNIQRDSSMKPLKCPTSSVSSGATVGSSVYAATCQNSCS

T5: rat GIP receptor (rat, UniProt P43219 19-455)
T5 sequence (looked up): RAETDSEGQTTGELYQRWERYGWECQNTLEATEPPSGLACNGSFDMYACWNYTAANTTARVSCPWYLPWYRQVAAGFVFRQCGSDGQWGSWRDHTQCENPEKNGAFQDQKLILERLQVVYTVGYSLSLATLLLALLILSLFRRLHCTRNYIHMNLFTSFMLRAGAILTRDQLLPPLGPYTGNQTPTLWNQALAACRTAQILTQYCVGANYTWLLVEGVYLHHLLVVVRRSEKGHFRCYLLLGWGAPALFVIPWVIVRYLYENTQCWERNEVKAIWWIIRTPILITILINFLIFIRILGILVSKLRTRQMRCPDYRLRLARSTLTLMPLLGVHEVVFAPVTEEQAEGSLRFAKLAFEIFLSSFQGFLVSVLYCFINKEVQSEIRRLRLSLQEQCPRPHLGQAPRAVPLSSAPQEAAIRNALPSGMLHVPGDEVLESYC

B1: IP354 (Fc fusion)
chain: YSEGMHTSDFSKLLEEEAVRLFIEWLLAGGGGGGSGGGGSGGGGSGGGGSATHTCPPC
B2: IP360 (Fc fusion)
chain: B1 chain with M5T, H6F, F10Y, S11R, K12I
B3: IP358 (Fc fusion)
chain: B1 chain with M5T, H6F
B4: IP357 (Fc fusion)
chain: B1 chain with M5T, H6F, W25F
B5: IP355 (Fc fusion)
chain: B1 chain with M5T, D9L
B6: IP325 (Fc fusion)
chain: YSEGTFTSDYSKLLEEEAVRLFIEWLVKGPGGGGGSGGGGSGGGGSGGGGSGGGGSGGGGSGGGGSGGGGSA
B7: IP328 (Fc fusion)
chain: B6 chain with V27L, K28A, P30G
B8: IP324 (Fc fusion)
chain: YSEGTFTSDYSKLLEEEAVRLFIEWLVKGPGGGGGSGGGGSGGGGSGGGGSGGGGSGGGGSGGGGSA
B9: IP297 (Fc fusion)
chain: YSEGTFTSDYSKLLEEEAVRLFIEWLLAGGGGGGGGGGGGGGGGGGGGGGGGGACPPC
B10: IP300 (Fc fusion)
chain: B9 chain with G30A, G31P, G32P
B11: IP213 (Fc fusion)
chain: YSEGTFTSDYSKLLEEEAVRLFIEWLLAGGAAAGGSGSTASSGSGSATGGGGAATHTCPPCPAPEF
B12: IP087 (Fc fusion)
chain: B11 chain with G30P
B13: IP323 (Fc fusion)
chain: YSEGTFTSDYSKLLEEEAVRLFIEWLVKGPGGGGGSGGGGSGGGGSGGGGSGGGGSGGGGSA
B14: IP327 (Fc fusion)
chain: B13 chain with V27L, K28A, P30G
B15: IP322 (Fc fusion)
chain: YSEGTFTSDYSKLLEEEAVRLFIEWLVKGPGGGGGSGGGGSGGGGSGGGGSGGGGSA
B16: IP326 (Fc fusion)
chain: B15 chain with V27L, K28A, P30G

Columns and labels:
Experiment in all cases: cell-based or functional assay
human GLP-1 receptor = human GLP-1 receptor (human, UniProt P43220 24-463)
human glucagon receptor = human glucagon receptor (human, UniProt P47871 26-477)
human GIP receptor = biological target: T1, human GIP receptor
mouse GLP-1 receptor = biological target: T2, mouse GLP-1 receptor
mouse GIP receptor = biological target: T3, mouse GIP receptor
rat GLP-1 receptor = biological target: T4, rat GLP-1 receptor
rat GIP receptor = biological target: T5, rat GIP receptor

| Binder | cAMP EC50 (human GLP-1 receptor) [nM] | cAMP EC50 (human glucagon receptor) [nM] | cAMP EC50 (human GIP receptor) [nM] | cAMP EC50 (mouse GLP-1 receptor) [nM] | cAMP EC50 (mouse GIP receptor) [nM] | cAMP EC50 (rat GLP-1 receptor) [nM] | cAMP EC50 (rat GIP receptor) [nM] | cAMP EC50, hGIPr (C3) line (human GIP receptor) [nM] | cAMP EC50, Batch 2 (human GLP-1 receptor) [nM] | cAMP EC50, Batch 2 (human glucagon receptor) [nM] | cAMP EC50, Batch 2 (human GIP receptor) [nM] | cAMP EC50, Batch 2 (mouse GLP-1 receptor) [nM] | cAMP EC50, Batch 2 (mouse GIP receptor) [nM] | cAMP EC50, Batch 2 (rat GLP-1 receptor) [nM] | cAMP EC50, Batch 2 (rat GIP receptor) [nM] |
| --- | --- | --- | --- | --- | --- | --- | --- | --- | --- | --- | --- | --- | --- | --- | --- |
| B1 | 1.4 | > 7370 | 0.024 | 13 | 270 | 3.6 | 0.74 |  |  |  |  |  |  |  |  |
| B2 | 0.31 | 63 | 0.016 | 1.2 | 0.36 | 0.15 | 0.033 | 2.5 |  |  |  |  |  |  |  |
| B3 | 0.24 | 140 | 0.0094 | 1.1 | 12 | 0.15 | 0.049 |  |  |  |  |  |  |  |  |
| B4 | 0.27 | 110 | 0.014 | 1.1 | 16 | 0.13 | 0.067 |  |  |  |  |  |  |  |  |
| B5 | 8.8 | > 527 | 0.17 | 220 | 17 | 20 | 0.5 |  |  |  |  |  |  |  |  |
| B6 | 0.46 | > 455 | 0.037 | 0.64 | 170 | 0.035 | 0.13 |  | 0.16 | 110 | 0.018 | 0.488 | 57.2 | 0.0519 | 0.154 |
| B7 | 1.2 | 43 | 0.085 | 3.9 | 5.4 | 0.21 | 0.17 |  | 0.33 | 13 | 0.033 | 1.3 | 2.2 | 0.12 | 0.092 |
| B8 | 0.4 | 470 | 0.037 | 0.72 | 240 | 0.04 | 0.14 |  | 0.14 | 120 | 0.016 | 0.391 | 67.5 | 0.0363 | 0.141 |
| B9 | 0.19 | 31 | 0.015 | 0.82 | 8.1 | 0.028 | 0.089 |  |  |  |  |  |  |  |  |
| B10 | 0.21 | 21 | 0.013 | 0.94 | 0.9 | 0.027 | 0.069 |  |  |  |  |  |  |  |  |
| B11 | 0.087 | 18 | 0.0059 | 0.82 | 2.5 | 0.087 | 0.054 |  |  |  |  |  |  |  |  |
| B12 | 0.28 | 9.6 | 0.0086 | 1.2 | 5.7 | 0.11 | 0.17 |  |  |  |  |  |  |  |  |
| B13 | 0.2 | 190 | 0.017 | 0.34 | 65 | 0.019 | 0.082 |  |  |  |  |  |  |  |  |
| B14 | 0.25 | 10 | 0.016 | 0.7 | 1.2 | 0.032 | 0.028 |  |  |  |  |  |  |  |  |
| B15 | 0.29 | 260 | 0.026 | 0.41 | 8.3 | 0.025 | 0.11 |  |  |  |  |  |  |  |  |
| B16 | 0.37 | 15 | 0.027 | 0.87 | 1.7 | 0.039 | 0.037 |  |  |  |  |  |  |  |  |
